The results in this text go back to patent publication US20240360228A1 (BIOLEGEND, published 2024).

Changes are numbered by the printed parent chain.

The labels stand for the following.
B1: anti-CCR8 monoclonal antibody AB10 (antibody, V domains shown)
VH: EVQLVETGGGLVQPKGSLKLSCAVSGFTFKTNAMNWVRQAPGKGLEWVARIRSKSNKYATYYADSVKDRFTISRDDSQSMLYLQMNNLKTEDTAMYYCVRGSEMGYYYAMDYWGQGTSVTVSS
VL: DIVMTQAAPSVPVTPGESVSISCRSSKSLLHSNGNTYLYWFLQRPGQSPQLLIYRMSNLASGVPDRFSGSGSGTAFTLRISRVEAEDVGVYYCMQHLEYPFTFGGGTKLEIK
notes: Hybridoma monoclonal; also called antibody 10; clone 10
B2: anti-CCR8 monoclonal antibody AB7 (antibody, V domains shown)
VH: AVQLVESGGGLVQPKESLKISCAASGFTFSYAAMYWVRQTPGKGLEWVARIRTKPNNYATYYADSVKGRFTISRDDSKSMVYLQMDNLKSEDTAMYYCNIMGITRGYYFDYWGQGVMVTVSS
VL: DIQMTQSPSFLSASVGDRVTINCKASQNINRYLNWYQQQLGEAPKLLIYNANNLQTGIPSRFSGSRSGTDFTLTISSLQPEDVATYFCLQHNSWPWTFGGGTKLELK
notes: Hybridoma monoclonal; also called antibody 7; clone 7
B3: anti-CCR8 monoclonal antibody AB8 (antibody, V domains shown)
VH: B2 VH with T28I, Y31N, T40A, E46Q, N56K, A63I, S90T, I100T, I103L, G106A
VL: B2 VL with Q39K, N53S, R66G, S76R
notes: Hybridoma monoclonal; also called antibody 8; clone 8
B4: anti-CCR8 monoclonal antibody AB6 (antibody, V domains shown)
VH: QVQLKESGPGLVQPSQTLSLTCTVSGFSLTSYHVSWVRQPPGKGLEWMGVIWTGGSTTYNSLLKSRLSISRDISKSQVFLKMNSLQTEDTATYYCARGGTVVKGGFAYWGQGTLVTVSS
VL: DIQMTQSPASLSASLEEIVTITCQASQDIGNRLSWYQQKPGKSPQLLIYGATSLADGVPSRFSGSRSGTQYSLKISRLQVEDIGIYYCLQAYSTPLTFGSGTKLEIK
notes: also called antibody 6; clone 6

In one test the target is T1, human chemokine (C-C motif) receptor 8 (CCR8) (human, UniProt P51685 1-355).
T1 construct: also called hCCR8
T1 sequence (P51685 whole entry): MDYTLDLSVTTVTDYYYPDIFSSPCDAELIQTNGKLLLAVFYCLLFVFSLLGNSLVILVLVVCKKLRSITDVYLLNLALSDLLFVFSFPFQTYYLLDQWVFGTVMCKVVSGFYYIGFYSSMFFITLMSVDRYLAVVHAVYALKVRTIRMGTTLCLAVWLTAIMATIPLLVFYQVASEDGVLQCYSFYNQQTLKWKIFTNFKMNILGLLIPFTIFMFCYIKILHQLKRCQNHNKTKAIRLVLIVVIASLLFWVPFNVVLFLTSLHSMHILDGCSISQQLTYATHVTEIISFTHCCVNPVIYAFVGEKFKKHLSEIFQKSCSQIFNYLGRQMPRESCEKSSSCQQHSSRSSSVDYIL
In words: flow cytometry blocking, human PBMC, CD3+ gate; competitor PE-L263G8.
With B1, the “% Blocking” value is 90.3%.

On to B2, for which the “% Blocking” value is 79.7%.

With B3, the “% Blocking” value was 92.5%.

B4: the “% Blocking” value is -12.1%.

In the next test the target is T1, human chemokine (C-C motif) receptor 8 …. In words: flow cytometry blocking, human PBMC, CD3+ gate; competitor PE-AB8. How it is done: (§1) For blocking studies, 100 μL of the cell suspension were incubated with 10 μg purified isotype control, AB1, AB2, AB3, AB4, AB5, AB8, AB9, AB10, AB11, AB12, AB13, AB14, AB15, and Commercial ABI antibodies, or isotype control, as blocking agents.
(§2) After incubation with the blocking agent, the cells were incubated with 0.25 μg of the indicated PE-conjugated antibody plus anti-human CD4 APC or anti-human CD3 for another 15 minutes in the dark and then washed 2 times with Cell Staining Buffer, and acquired in a FACSCanto II flow cytometer (BD Biosciences); the data was analyzed using FCS Express (De Novo Software); MFI correspond to the CCR8+ CD4+ lymphocytes or CCR8+ CD3+ lymphocytes.
(§3) Percentage original MFI was calculated by dividing the MFI of samples blocked with AB1, AB2, AB3, AB4, AB5, AB6, AB7, AB8, AB9, AB10, AB11, AB12, AB13, AB14, AB15, and Commercial ABI antibodies, by the MFI of samples blocked with the corresponding isotype control. This value was subtracted from 100 to get a blocking percentage. The formula is shown below: […]
In general terms: Flow cytometry measures light scatter and fluorescence of single cells or particles in a stream.
For B1, the “% Blocking” value was 48.6%.

With B2, the “% Blocking” value was 92.9%.

With B3, the “% Blocking” value worked out at 18%.

On to B4, for which the “% Blocking” value is 85.2%.

For another test the target is unchanged. In words: flow cytometry blocking, human PBMC, CD3+ gate; competitor PE-AB5. On the procedure: as §1, §2, §3
Regarding B1, the “% Blocking” value was -5.55%.

Take B2: the “% Blocking” value is -4.7%.

As for B3, the “% Blocking” value was -7.96%.

For the molecule B4, the “% Blocking” value was determined as 7.24%.

Another test has the same target. In words: flow cytometry blocking, human PBMC, CD3+ gate; % cells stained by competitor PE-AB7 after block. On the procedure:
as §1, §2
In the case of B1, the “% Positive cells” value is 4.54%.

For B2, the “% Positive cells” value is 1.47%.

Regarding B3, the “% Positive cells” value is 8.51%.

In the case of B4, the “% Positive cells” value was determined as 1.55%.

For another test the target is unchanged. In words: flow cytometry blocking, human PBMC, CD3+ gate; competitor PE-AB13. How it is done: as §1, §2, §3
As for B1, the “% Blocking” value came out at 88.1%.

Consider B2, for which the “% Blocking” value was found to be 85.6%.

For the molecule B3, the “% Blocking” value stood at 96.1%.

Regarding B4, the “% Blocking” value came to 2.41%.

The target is the same in another test. In words: flow cytometry blocking, human PBMC, CD3+ gate; competitor PE-433H.
Regarding B1, the “% Blocking” value came out at 19.9%.

With B2, the “% Blocking” value was found to be 87.5%.

Regarding B3, the “% Blocking” value came out at 88.1%.

Take B4: the “% Blocking” value is 9.05%.

A further test shares this target. In words: flow cytometry blocking, human PBMC, CD3+ gate; competitor PE-AB15. On the procedure: as §1, §2, §3
In the case of B1, the “% Blocking” value is 95.6%.

As for B2, the “% Blocking” value was determined as 87.1%.

Consider B3, for which the “% Blocking” value was determined as 98.9%.

For the molecule B4, the “% Blocking” value came out at 10%.

For a further test the target is unchanged. In words: flow cytometry blocking, human PBMC, CD3+ gate; competitor PE-AB14. How it is done:
as §1, §2, §3
With B1, the “% Blocking” value is 96.2%.

Take B2: the “% Blocking” value was 96.3%.

With B3, the “% Blocking” value worked out at 98.5%.

B4: the “% Blocking” value amounted to 10.2%.

The target is the same in a further test. As to the kind of experiment: flow cytometry blocking, human PBMC, CD3+ gate; % cells stained by competitor PE-AB11 after block. How it is done: as §1, §2
On to B1, for which the “% Positive cells” value is 0.28%.

For the molecule B2, the “% Positive cells” value was determined as 0.14%.

For B3, the “% Positive cells” value is 0.69%.

With B4, the “% Positive cells” value came out at 7.67%.

For a further test the target is unchanged. As to the kind of experiment: flow cytometry blocking, human PBMC, CD3+ gate; % cells stained by competitor PE-AB6 after block. How it is done: as §1, §2
Take B1: the “% Positive cells” value was determined as 7.78%.

In the case of B2, the “% Positive cells” value is 8.3%.

As for B3, the “% Positive cells” value came to 8.17%.

B4: the “% Positive cells” value was 7.25%.

A further test shares this target. In words: flow cytometry blocking, human PBMC, CD3+ gate; % cells stained by competitor PE-L263G8 after block. How it is done:
as §1, §2
In the case of B1, the “% Positive cells” value was found to be 0.57%.

Consider B2, for which the “% Positive cells” value came out at 1.19%.

As to B3, the “% Positive cells” value worked out at 0.44%.

Take B4: the “% Positive cells” value came to 6.58%.

The target is the same in a further test. As to the kind of experiment: flow cytometry blocking, human PBMC, CD3+ gate; competitor PE-AB6. How it is done: as §1, §2, §3
With B1, the “% Blocking” value is 6.04%.

With B2, the “% Blocking” value is -0.24%.

With B3, the “% Blocking” value is 1.33%.

With B4, the “% Blocking” value worked out at 12.4%.

For a further test the target is unchanged. In words: flow cytometry blocking, human PBMC, CD3+ gate; competitor PE-AB7. How it is done:
as §1, §2, §3
For the molecule B1, the “% Blocking” value worked out at 50.1%.

Regarding B2, the “% Blocking” value was 83.8%.

With B3, the “% Blocking” value was determined as 6.48%.

Consider B4, for which the “% Blocking” value amounted to 83%.

For a further test the target is unchanged. In words: flow cytometry blocking, human PBMC, CD3+ gate; % cells stained by competitor PE-AB10 after block. On the procedure:
as §1, §2
Turning to B1, the “% Positive cells” value was found to be 0.15%.

Turning to B2, the “% Positive cells” value turned out to be 0.53%.

For the molecule B3, the “% Positive cells” value came to 0.65%.

Regarding B4, the “% Positive cells” value was found to be 5.61%.

The target is the same in another test. In words: flow cytometry blocking, human PBMC, CD3+ gate; competitor PE-AB12. On the procedure: as §1, §2, §3
As to B1, the “% Blocking” value was found to be 93.9%.

B2: the “% Blocking” value worked out at 99.3%.

As to B3, the “% Blocking” value stood at 99.3%.

For B4, the “% Blocking” value stood at 5.71%.

The target is the same in another test. In words: flow cytometry blocking, human PBMC, CD3+ gate; % cells stained by competitor PE-433H after block. How it is done: as §1, §2
For B1, the “% Positive cells” value stood at 5.66%.

In the case of B2, the “% Positive cells” value is 0.88%.

For the molecule B3, the “% Positive cells” value was 0.84%.

As to B4, the “% Positive cells” value stood at 6.43%.

The next test has the same target. In words: flow cytometry blocking, human PBMC, CD3+ gate; % cells stained by competitor PE-AB13 after block. On the procedure: as §1, §2
As for B1, the “% Positive cells” value was found to be 0.79%.

On to B2, for which the “% Positive cells” value was determined as 0.96%.

On to B3, for which the “% Positive cells” value stood at 0.26%.

Take B4: the “% Positive cells” value was found to be 6.49%.

The next test has the same target. In words: flow cytometry blocking, human PBMC, CD3+ gate; % cells stained by competitor PE-AB12 after block. How it is done: as §1, §2
Take B1: the “% Positive cells” value is 0.46%.

For B2, the “% Positive cells” value turned out to be 0.05%.

Take B3: the “% Positive cells” value was 0.05%.

Regarding B4, the “% Positive cells” value came out at 7.1%.

The target is the same in a further test. In words: flow cytometry blocking, human PBMC, CD3+ gate; competitor PE-AB11. On the procedure:
as §1, §2, §3
Turning to B1, the “% Blocking” value is 96%.

In the case of B2, the “% Blocking” value turned out to be 98%.

Regarding B3, the “% Blocking” value came out at 90.2%.

B4: the “% Blocking” value was -9.26%.

The target is the same in a further test. In words: flow cytometry blocking, human PBMC, CD3+ gate; % cells stained by competitor PE-AB15 after block. How it is done:
as §1, §2
Take B1: the “% Positive cells” value came to 0.29%.

For the molecule B2, the “% Positive cells” value stood at 0.85%.

On to B3, for which the “% Positive cells” value was 0.07%.

As to B4, the “% Positive cells” value worked out at 5.92%.

A further test shares this target. As to the kind of experiment: flow cytometry blocking, human PBMC, CD3+ gate; competitor PE-AB10. How it is done: as §1, §2, §3
In the case of B1, the “% Blocking” value came out at 97.5%.

Consider B2, for which the “% Blocking” value stood at 91.2%.

As for B3, the “% Blocking” value came to 89.2%.

With B4, the “% Blocking” value was found to be 6.97%.

A further test has the same target. As to the kind of experiment: flow cytometry blocking, human PBMC, CD3+ gate; % cells stained by competitor PE-AB5 after block. On the procedure:
as §1, §2
Regarding B1, the “% Positive cells” value stood at 8.75%.

As to B2, the “% Positive cells” value turned out to be 8.68%.

On to B3, for which the “% Positive cells” value was 8.95%.

On to B4, for which the “% Positive cells” value was determined as 7.69%.

The target is the same in the next test. As to the kind of experiment: flow cytometry blocking, human PBMC, CD3+ gate; % cells stained by competitor PE-AB8 after block. On the procedure:
as §1, §2
In the case of B1, the “% Positive cells” value is 4.35%.

With B2, the “% Positive cells” value stood at 0.6%.

With B3, the “% Positive cells” value is 6.94%.

As to B4, the “% Positive cells” value stood at 1.25%.

The target is the same in the next test. In words: flow cytometry blocking, human PBMC, CD3+ gate; % cells stained by competitor PE-AB14 after block. How it is done: as §1, §2
B1: the “% Positive cells” value came to 0.27%.

In the case of B2, the “% Positive cells” value is 0.26%.

B3: the “% Positive cells” value was found to be 0.11%.

As for B4, the “% Positive cells” value is 6.4%.
